Test: soluble on expression in E. coli; label from the status in PepcDB or PDB records
In the case of “MNPTVLVAEDDPVQRLLLRRALEPLGVEVRLARHGREALDLALEAPPHLVLTDLHMPHMDGLELTRRLKALDPLLPVLLFTADRDHETRLRGLEAGADDFLNRPFDLTELRLRVKGHLERRRLQEKLEDLERALLALVRAVEAKDPYTAGHAERVARYALLGARELGAGEEELRDLHMGALLHDVGKIGLPDRILRGEAPLSAADWRLIQAHPVKGDEILTPLKAHPRLRPYVRWHHEKLDGSGYPDGLTEIPLLVQVLSAADMYDALTSRRTYREAVKPEEALEALEREAREGRLALEAVRALRSGLRRGASEAKGHVLHL”, the “soluble on expression in E. coli” value is reported as “soluble”. In the case of “MGSSHHHHHHSSGLVPRGSHMAKAPEQTVTEPVGSYARAERPQDFEGFVWRLDNDGKEALPRNFRTSADALRAPEKKFHLDAAYVPSREGMDALHISGSSAFTPAQLKNVAAKLREKTAGPIYDVDLRQESHGYLDGIPVSWYGERDWANLGKSQHEALADERHRLHAALHKTVYIAPLGKHKLPEGGEVRRVQKVQTEQEVAEAAGMRYFRIAATDHVWPTPENIDRFLAFYRTLPQDAWLHFHCEAGVGRTTAFMVMTDMLKNPSVSLKDILYRQHEIGGFYYGEFPIKTKDKDSWKTKYYREKIVMIEQFYRYVQENRADGYQTPWSVWLKSHPAKA”, the “soluble on expression in E. coli” value is reported as “soluble”. In the case of “MSLKLFITGIGSGLGKALVEEGIKRGYEVYALSRHLPEEFKEKIHFVKCDLLKVEEVQGCLFKLLSGVKELELAILNAGILGKFSDMKDISLHEIDEVMKVNLWSNKVIIDTLMELGIKVKTLIGISSGAARNCNRGWNAYSLSKAGLNCLLKLYSWELPETKVISLAPGLVLTPMLKEVMSQNEEKYPSIKRIKNAPKLTPEKTAEFIFSILPKLESVESGSFVDVREGHHHHHH”, the “soluble on expression in E. coli” value is reported as “soluble”. For “MEDRREALISKLMNMLVENGFSVSGTGFQPVATFDIVARRDVERYILKVLYNIDTLKQSTAYQLIKLAKLLRATAAIIGERTGNGQLEDGVVYYRHGVPISSVNTFESYLNGERPYIYSGPGGFYVRINGELLRERRNELNLSIGNISSYLGVSRRSVSLYENGSAATIDIFIRLRNILKADIVDHIDLFRINSTEINFEEKISDEYIARIIWLLQKYGLDTRPIFKVPFDIVAKDSDEISLIAALIGDAPEPERVRILKKISDVFEDDAFLVSKSNTYRESIGGCAVLTISDLESIEDKDALIGKIEKRAK”, the “soluble on expression in E. coli” value was “not soluble”. For “MSSSPTSSSSGSPSSHGHRSETEKQRRDDTNDLLNEFKKIVQKSESEKLSKEEVLFRIVKLLSGIQLHHESFSTSPGPIRSIKKIKSDREQVRRNKRVAAYRELRKFIALNNLSSSEEIDKMENLKVLEIIFEVIRGKSITCTVPCLPFPILPFLPVFPVYSPLVFNSYNQFSLYPPHMPTVQIPIVPSSSFEIDALEIEENEKDIDIVG”, the “soluble on expression in E. coli” value was “soluble”. In the case of “TKTTTQGAKSGVFDTVDEAVQAAVIAQNCYKEKSLEERRNVVKAIREALYPEIETIATRAVAETGMGNVTDKILKNTLAIEKTPGVEDLYTEVATGDNGMTLYELSPYGVIGAVAPSTNPTETLICNSIGMLAAGNAVFYSPHPGAKNISLWLIEKLNTIVRDSCGIDNLIVTVAKPSIQAAQEMMNHPKVPLLVITGGPGVVLQAMQSGKKVIGAGAGNPPSIVDETANIEKAAADIVDGASFDHNILCIAE”, the “soluble on expression in E. coli” value is reported as “not soluble”. For “NAMYTITDIAPTDAEFIALIAALDAWQETLYPAESNHLLDLSQLPPQTVIALAIRSPQGEAVGCGAIVLSEEGFGEMKRVYIDPQHRGQQLGEKLLAALEAKARQRDCHTLRLETGIHQHAAIALYTRNGYQTRCAFAPYQPDPLSVFMEKPLFADLRSAAL”, the “soluble on expression in E. coli” value was “soluble”. With “MLTVDLSGKKALVMGVTNQRSLGFAIAAKLKEAGAEVALSYQAERLRPEAEKLAEALGGALLFRADVTQDEELDALFAGVKEAFGGLDYLVHAIAFAPREAMEGRYIDTRRQDWLLALEVSAYSLVAVARRAEPLLREGGGIVTLTYYASEKVVPKYNVMAIAKAALEASVRYLAYELGPKGVRVNAISAGPVRTVAARSIPGFTKMYDRVAQTAPLRRNITQEEVGNLGLFLLSPLASGITGEVVYVDAGYHIMGMELEG” the “soluble on expression in E. coli” value was “soluble”. In the case of “MSLKQAAENTLNLNPVIGIRGKDLLTSARMVLLQAVRQPLHSARHVAHFSLELKNVLLGQSELRPGDDDRRFSDPAWSQNPLYKRYMQTYLAWRKELHSWISHSDLSPQDISRGQFVINLLTEAMSPTNSLSNPAAVKRFFETGGKSLLDGLGHLAKDLVNNGGMPSQVDMDAFEVGKNLATTEGAVVFRNDVLELIQYRPITESVHERPLLVVPPQINKFYVFDLSPDKSLARFCLRNGVQTFIVSWRNPTKSQREWGLTTYIEALKEAIEVVLSITGSKDLNLLGACSGGITTATLVGHYVASGEKKVNAFTQLVSVLDFELNTQVALFADEKTLEAAKRRSYQSGVLEGKDMAKVFAWMRPNDLIWNYWVNNYLLGNQPPAFDILYWNNDTTRLPAALHGEFVELFKSNPLNRPGALEVSGTPIDLKQVTCDFYCVAGLNDHITPWESCYKSARLLGGKCEFILSNSGHIQSILNPPGNPKARFMTNPELPAEPKAWLEQAGKHADSWWLHWQQWLAERSGKTRKAPASLGNKTYPAGEAAPGTYVHEREGHHHHHH”, the “soluble on expression in E. coli” value is reported as “not soluble”. In the case of “MGMACLTMTEMEATSTSPVHQNGDIPGSANSVKQIEPVLQVYLYHSLGQAEGEYLKFPSGEYVAEEICVAASKACGITPVYHNMFALMSETERIWYPPNHVFHIDESTRHDILYRIRFYFPHWYCSGSSRTYRYGVSRGAEAPLLDDFVMSYLFAQWRHDFVHGWIKVPVTHETQEECLGMAVLDMMRIAKEKDQTPLAVYNSVSYKTFLPKCVRAKIQDYHILTRKRIRYRFRRFIQQFSQCKATARNLKLKYLINLETLQSAFYTEQFEVKESARGPSGEEIFATIIITGNGGIQWSRGKHKESETLTEQDVQLYCDFPDIIDVSIKQANQECSNESRIVTVHKQDGKVLEIELSSLKEALSFVSLIDGYYRLTADAHHYLCKEVAPPAVLENIHSNCHGPISMDFAISKLKKAGNQTGLYVLRCSPKDFNKYFLTFAVERENVIEYKHCLITKNENGEYNLSGTKRNFSNLKDLLNCYQMETVRSDSIIFQFTKCCPPKPKDKSNLLVFRTNGISDVQISPTLQRHNNVNQMVFHKIRNEDL”, the “soluble on expression in E. coli” value is reported as “not soluble”. In the case of “MGSDKIHHHHHHMEAVERVNLLGLDGAALSELVGQWGGKPFRARQLQRWVHQRGADSFDAMTDLARDFRAQLARDCVIEALPVNTEQRSSDGTRKWLFDVGQGNAIETVFIPEDDRGTLCISSQAGCVVNCRFCSTGHQGFNRNLRASEIIGQLWWAKRVLEAAADTARLPGGKAGEDTRVISNVVMMGMGEPLLNYDQVLPALRLMLDDNAYGLSRRRVTVSTSGVVPMMDRLSQDCPVALAVSLHAPNDALRDELVPLNKKYPLNALLAACERYLAHAPRDFITFEYCMLDGINDTDQHARELIQLARQVRCKLNLIPFNPFPASGLKRSPSARVRVFAQRLMDAGIVTTVRKTRGDDIDAACGQLAGEVRDRTRITERNATRTIPIQQVHA”, the “soluble on expression in E. coli” value is reported as “not soluble”. For “MMLSSNSFSLNLSNEDYIWPLEEDQEETTDSSGPMMLSPPLPEGACFNFEDRNTVYVHSRRPEDTPKSFELYSIPEDLALDSPFPSCEQTTFFTTKPDKSFLLDIKNSSPLNIGRMQNSRS”, the “soluble on expression in E. coli” value was “soluble”. In the case of “MKNYIAIHPGEILREEYLKEYALSAYALAKALNVPRTRIERIVAENSRITPDTALRLASFFDTTAEFWLNMQAAYDVSVLQAEKADEFSKISKFECRV”, the “soluble on expression in E. coli” value is reported as “not soluble”. In the case of “MAHHHHHHMDVEERTRRCSSLGLAVRNLPRDTASSFVHKFFEDHVGCVQEVMMHSSRPNQSRNIAAPNTNGVDQGKRGNDDNDPPASFGLSGRRDGNSSSGIAVKTCSNDADGNTLCLVFFSAAECVRLAKLLYMRRPELFNVLGVVDGKELRLTIPSKLIRLSRTAHAHCDDGDNTRSKKSSQGEEDTPKGDAEKNDAGT”, the “soluble on expression in E. coli” value is reported as “not soluble”. With “MNIVLMGLPGAGKGTQAEQIIEKYEIPHISTGDMFRAAIKNGTELGLKAKSFMDQGNLVPDEVTIGIVHERLSKDDCQKGFLLDGFPRTVAQADALDSLLTDLGKKLDYVLNIKVEQEELMKRLTGRWICKTCGATYHTIFNPPAVEGICDKDGGELYQRIDDKPETVKNRLDVNMKQTQPLLDFYSQKGVLKDIDGQQDIKKVFVDINDLLGGLR” the “soluble on expression in E. coli” value was “soluble”. For “MAHHHHHHMMLRSHVGYDDLQNGGSDQPVSFLRSAAGRTYLADGSSALSSAQLTAAQKLLPLTDRSSQAALDAARLEPPIEHASVMYHGCQQAVLNAELREKVEAHYKHWSSRVEELQALLSDLPTESALHSTRAVENLHSYLGAYRCTEDMLVTPSEVVEQHALRTPVPEIDVMFQMPAIPMDTMRRALDDLLRSPYLLAPLDTHLAHLSLLDKLGQLSWSGEGEVTAPLSKKPRGKRAVARKDCTVDESNETGVVLQAEEAAAEEDIYPSRAAVAMHERLHYNPGDYAQRELKKSEEALRELQDRMQTAKRQKEEAIDAADPLTALRNLHAQVDFSNDLLLLYRARMALVSLHSDDTRDFRRDVVDLIDDSHQSVQAVHRYAREALPSVQHDVRAMTEVIRQTQQRLIAMQATEAAADAGMRAHLCDMDKAARVLWEEVGALLEKIAENARERGRYAQKCMSLREQRAKEAAAVNAQLQAQSAHCERLCRCEEVLTRWNQAGDVFGKYMDACVPKLLKHLAAVEESDADLAQREAEGYVGCYEQFVYAAEEARAKRCTQADRMRLLQRSTLLNQERASDTMDPDAPAHAQRLDDVSRELDEVQLYLKYLSDMEADRKAEVDPVLRGVLARQTQAQLVTTGEEGEAEKPLPTPGLLEDAPAASTADAKPSLASPSTAAETTKSTSAVPATAAGDGAVVAATTTATTTAPPSLSVTVAHPFVTARLIGLAHESDYISQQGQLLGQEMQAVEAKWTGLRHSRKELQAMEEKYKNGDDIRALLGVEKL”, the “soluble on expression in E. coli” value was “soluble”. For “MSLFGIEVEEEASQIIHILLLQYISKSYSTYSLRSNQGYNPQTLDNNQQIYNSQLSNGNQQSEITCPYCHSTQVTAGKKGFGVGKAIVGGLLLGPVGLLGGLIGSKNIEFVYNCITLSASNNTNSAQWLREQSNNAKNIVNRYLDNDFAEALVAGSALVAMADGVIEYSERERLINYFKTSQEMKHIDTNMVLSKFDCYTQKLQRDFMMGKQNYEGHHHHHH”, the “soluble on expression in E. coli” value was “not soluble”. In the case of “MTNYIYPKFGYLRSKEQAEGIVKRHPIVVIGAGPVGLTAALDCAARGQPVVLLDDNDTVSIGSRAVCYAKRPLEIWNRLDCADPMVERGVSWNVGKVFFRDELSYQFDLLPESDHEWPAMINLQQYHLEEILVARCRASPLIDLRWKHRLISLKQAADHAELAVETPDGIFTMEAQWVIACDGANSDTRKMVGAEFKGQYFEDRFLIADVAMKADFPTERWFWFDPPFHPAQSVLLHRQADDIWRIDFQLGWDADPDEEKRPERVIPRIKAMLGEDTEFELEWVSIYQFACRRIDKFRHGRVLFAGDAAHQVSPFGARGANTGVQDIDNLAWKLAMVLRGEAPEALLDSYHDERAYAADDNILNSTRATDFITPKTKVSRHFRDAVLELAQHHGFARPLVNSGRLSTPTPYVTSPLNTFDDSLLDGEMRPGTNAADAPVTIGGKPDWFLNCLGAGFVVVTFDQAVDNERIEVGPIAARVIRVGRDIDDPRGVLASRYGTSTGTTYLFRPDQYVAARWAGFDEGKISAALLRATAQDAVRQKEIAALEHHHHHH”, the “soluble on expression in E. coli” value is reported as “not soluble”. For “MSLEDRIDQVEQAITKSRRYQTVAPATVRRLARAALVAARGDVPDAVKRTKRGLHEIYGAFLPPSPPNYAALLRQLDSAVDAGDDEAVRAALRRAMSVHVSTRERLPHLAEFYQEIFRHVPQPNTLRDLACGLNPLAAPWMGLSDQTVYVASDIDARLIGFVDAALTRLGVAHRTSVVDLLEDRLDEPTDVTLLLKTLPCLETQRRGSGWEVIDIVNSPIIVVTFPTKSLGQRSKGMFQNYSQSFESQARERSCRIQRLEIGNELIYVIQKEGHHHHHH”, the “soluble on expression in E. coli” value was “soluble”.

— the DeepSol protein solubility set
